# Residue numbers refer to the chain shown, from its start. In names and notes the source's numbering stands.
# B1: PYR1^K59R,A89C,E141Y (receptor, not shown: small tags and cut ends)
# chain: MPSELTPEERSELKNSIAEFHTYQLDPGSCSSLHAQRIHAPPELVWSIVRRFDKPQTYRHFIKSCSVEQNFEMRVGCTRDVIVISGLPCNTSTERLDILDDERRVTGFSIIGGEHRLTNYKSVTTVHRFEKENRIWTVVLYSYVVDMPEGNSEDDTRMFADTVVKLNLQKLATVAEAMARNSGDGSGSQVT
# notes: pBD-PYR1 fusion in yeast
# B2: PYR1^K59R,F159L (receptor, not shown: small tags and cut ends)
# chain: B1 chain with C89A, Y141E, F159L
# notes: pBD-PYR1 fusion in yeast
# B3: PYR1^K59R,V83L (receptor, not shown: small tags and cut ends)
# chain: B1 chain with V83L, C89A, Y141E
# notes: pBD-PYR1 fusion in yeast
# B4: PYR1^K59R,V164Y (receptor, not shown: small tags and cut ends)
# chain: B1 chain with C89A, Y141E, V164Y
# notes: pBD-PYR1 fusion in yeast
# B5: PYR1^K59R,V81I (receptor, not shown: small tags and cut ends)
# chain: B1 chain with V81I, C89A, Y141E
# notes: pBD-PYR1 fusion in yeast
# B6: PYR1^K59R,T162W (receptor, not shown: small tags and cut ends)
# chain: B1 chain with C89A, Y141E, T162W
# notes: pBD-PYR1 fusion in yeast
# B7: PYR1^K59R,E141Y (receptor)
# chain: B1 chain with C89A
# notes: pBD-PYR1 fusion in yeast
# B8: PYR1^K59R,T162K (receptor, not shown: small tags and cut ends)
# chain: B1 chain with C89A, Y141E, T162K
# notes: pBD-PYR1 fusion in yeast
# B9: PYR1^K59R,E141Y,A160G (receptor)
# chain: B1 chain with C89A, A160G
# notes: pBD-PYR1 fusion in yeast
# B10: PYR1^K59R,A160G (receptor, not shown: small tags and cut ends)
# chain: B1 chain with C89A, Y141E, A160G
# notes: pBD-PYR1 fusion in yeast
# B11: PYR1^K59R,A89I,S92W (receptor)
# chain: B1 chain with C89I, S92W, Y141E
# notes: pBD-PYR1 fusion in yeast
# B12: PYR1^K59R,F159C (receptor, not shown: small tags and cut ends)
# chain: B1 chain with C89A, Y141E, F159C
# notes: pBD-PYR1 fusion in yeast
# B13: PYR1^K59R,M158I (receptor, not shown: small tags and cut ends)
# chain: B1 chain with C89A, Y141E, M158I
# notes: pBD-PYR1 fusion in yeast
# B14: PYR1^K59R,L117C,V164K (receptor)
# chain: B1 chain with C89A, L117C, Y141E, V164K
# notes: pBD-PYR1 fusion in yeast
# B15: PYR1^K59R,M158T (receptor, not shown: small tags and cut ends)
# chain: B1 chain with C89A, Y141E, M158T
# notes: pBD-PYR1 fusion in yeast
# B16: PYR1^K59R,A89W (receptor)
# chain: B1 chain with C89W, Y141E
# notes: pBD-PYR1 fusion in yeast
# B17: PYR1^K59R,F159V (receptor, not shown: small tags and cut ends)
# chain: B1 chain with C89A, Y141E, F159V
# notes: pBD-PYR1 fusion in yeast
# B18: PYR1^K59R,S92W (receptor)
# chain: B1 chain with C89A, S92W, Y141E
# notes: pBD-PYR1 fusion in yeast
# B19: PYR1^K59R,V164K (receptor, not shown: small tags and cut ends)
# chain: B1 chain with C89A, Y141E, V164K
# notes: pBD-PYR1 fusion in yeast
# B20: PYR1^K59R,E141K (receptor, not shown: small tags and cut ends)
# chain: B1 chain with C89A, Y141K
# notes: pBD-PYR1 fusion in yeast
# B21: PYR1^K59R,F159M (receptor, not shown: small tags and cut ends)
# chain: B1 chain with C89A, Y141E, F159M
# notes: pBD-PYR1 fusion in yeast
# B22: PYR1^K59R,A160G,V164K (receptor)
# chain: B1 chain with C89A, Y141E, A160G, V164K
# notes: pBD-PYR1 fusion in yeast
# B23: PYR1^K59R,A89I,S92I (receptor)
# chain: B1 chain with C89I, S92I, Y141E
# notes: pBD-PYR1 fusion in yeast
# B24: PYR1^K59R,F159A (receptor, not shown: small tags and cut ends)
# chain: B1 chain with C89A, Y141E, F159A
# notes: pBD-PYR1 fusion in yeast
# B25: PYR1^K59R,A89I (receptor)
# chain: B1 chain with C89I, Y141E
# notes: pBD-PYR1 fusion in yeast
# B26: PYR1^K59R,M158V (receptor, not shown: small tags and cut ends)
# chain: B1 chain with C89A, Y141E, M158V
# notes: pBD-PYR1 fusion in yeast
# B27: PYR1^K59R,S92I (receptor)
# chain: B1 chain with C89A, S92I, Y141E
# notes: pBD-PYR1 fusion in yeast
# B28: PYR1^K59R,F159T (receptor, not shown: small tags and cut ends)
# chain: B1 chain with C89A, Y141E, F159T
# notes: pBD-PYR1 fusion in yeast
# B29: PYR1^K59R,T162Y (receptor, not shown: small tags and cut ends)
# chain: B1 chain with C89A, Y141E, T162Y
# notes: pBD-PYR1 fusion in yeast
# B30: PYR1^K59R,F159I (receptor, not shown: small tags and cut ends)
# chain: B1 chain with C89A, Y141E, F159I
# notes: pBD-PYR1 fusion in yeast; also called K59R F1591
# B31: PYR1^K59R,M158C (receptor, not shown: small tags and cut ends)
# chain: B1 chain with C89A, Y141E, M158C
# notes: pBD-PYR1 fusion in yeast
# B32: PYR1^K59R,A89C,V164K (receptor, not shown: small tags and cut ends)
# chain: B1 chain with Y141E, V164K
# notes: pBD-PYR1 fusion in yeast
# B33: PYR1^K59R,L87F (receptor)
# chain: B1 chain with L87F, C89A, Y141E
# notes: pBD-PYR1 fusion in yeast
# B34: PYR1^K59R,L117C (receptor, not shown: small tags and cut ends)
# chain: B1 chain with C89A, L117C, Y141E
# notes: pBD-PYR1 fusion in yeast
# B35: PYR1^K59R,A89C,L117C (receptor)
# chain: B1 chain with L117C, Y141E
# notes: pBD-PYR1 fusion in yeast
# B36: PYR1^K59R,A160G,L117C (receptor)
# chain: B1 chain with C89A, L117C, Y141E, A160G
# notes: pBD-PYR1 fusion in yeast
# Columns and labels:
# [1] = target: T1, GAL4 activation domain fusion (ACT) to HAB1 (UniProt Q9CAJ0 23-511, limits assumed); assay: yeast two-hybrid, X-gal; lowest benzothiadiazole concentration giving signal
# T1 construct: pACT-HAB1 fusion in yeast reporter strains; also called pACT-HAB1
# T1 sequence (looked up): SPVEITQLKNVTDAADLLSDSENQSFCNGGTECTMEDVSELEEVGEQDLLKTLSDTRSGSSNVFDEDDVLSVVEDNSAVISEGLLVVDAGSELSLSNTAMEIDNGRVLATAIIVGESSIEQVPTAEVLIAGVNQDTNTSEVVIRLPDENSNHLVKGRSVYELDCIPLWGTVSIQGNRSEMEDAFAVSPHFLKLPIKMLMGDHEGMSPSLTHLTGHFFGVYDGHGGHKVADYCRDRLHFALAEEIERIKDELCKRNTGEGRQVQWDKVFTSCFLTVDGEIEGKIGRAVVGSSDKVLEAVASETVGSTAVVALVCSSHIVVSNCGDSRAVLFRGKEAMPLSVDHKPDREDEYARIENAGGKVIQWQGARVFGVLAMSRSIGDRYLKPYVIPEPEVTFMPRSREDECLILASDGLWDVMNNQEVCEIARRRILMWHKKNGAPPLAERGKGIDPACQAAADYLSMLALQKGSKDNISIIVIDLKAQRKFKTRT
# [2] = target: T1, GAL4 activation domain fusion (ACT) to …; assay: yeast two-hybrid, X-gal; lowest dichlobenil concentration giving signal
# [3] = target: T1, GAL4 activation domain fusion (ACT) to …; assay: yeast two-hybrid, X-gal; lowest mandipropamid concentration giving signal
# [4] = target: T1, GAL4 activation domain fusion (ACT) to …; assay: yeast two-hybrid, X-gal; lowest fludioxonil concentration giving signal
# [5] = target: T1, GAL4 activation domain fusion (ACT) to …; assay: yeast two-hybrid, X-gal; lowest benoxacor concentration giving signal
# Description: The set of 475 mutant plasmids were individually transformed into the Y190 yeast two hybrid reporter strain co-transformed with pACT-HAB1, as previously described (Park et al., 2009). The yeast strains generated were arrayed into 96-well plates yielding what we refer to as the “pocket library”. The pocket library strains were spotted onto agar plates containing selective synthetic dextrose (minus Leu & Trp) medium that was supplemented with a single test compound at 100 μM. The pocket library strains were separately tested for responsiveness to the following compounds: dichlobenil, benzothiadiazole, mandipropamid, fludioxonil, and benoxacor. After incubating test plates at 30° C. for two days, colonies were chloroform lysed and stained to reveal β-galactosidase expression levels, using previously described methods (Park et al., 2009). Mutants displaying responsiveness to the test compound, if present, were identified by virtue of X-gal staining and then subjected to subsequent optimization efforts. Using this approach we identified mutations that conferred detectable sensitivity to the compounds tested (see entries labeled “Pocket Library Screens” in Table 1).
Binder,Threshold [1] [µM],Threshold [2] [µM],Threshold [3] [µM],Threshold [4] [µM],Threshold [5] [µM]
B1,0.2,–,–,–,–
B2,100,100,100,–,–
B3,100,100,–,100,–
B4,100,100,–,–,–
B5,100,–,–,100,–
B6,100,100,–,100,50
B7,100,100,–,100,–
B8,100,100,–,–,–
B9,5,–,–,–,–
B10,100,–,–,–,–
B11,–,–,–,–,50
B12,100,–,100,–,–
B13,100,100,–,100,–
B14,100,–,–,–,–
B15,100,100,–,100,100
B16,–,–,100,–,100
B17,100,100,100,100,100
B18,–,–,–,–,50

Binder,Threshold [1] [µM],Threshold [2] [µM],Threshold [3] [µM],Threshold [4] [µM],Threshold [5] [µM]
B19,100,100,–,100,–
B20,100,–,–,–,–
B21,100,–,100,–,–
B22,5,–,–,–,–
B23,–,–,–,–,50
B24,100,–,100,100,–
B25,–,–,–,–,100
B26,100,100,–,100,100
B27,–,–,–,–,50
B28,100,–,100,100,–
B29,100,100,–,–,–
B30,100,100,100,–,–
B31,100,100,–,100,100
B32,0.2,–,–,–,–
B33,–,–,–,100,100
B34,100,–,–,–,–
B35,25,–,–,–,–
B36,25,–,–,–,–

# — patent US20160115500A1 (University of California, published 2016)
